Key:
[1] = molecular target: mouse aryl hydrocarbon receptor nuclear transport protein (ARNT) (mouse) (UniProt P53762)
[2] = molecular target: HIF-1alpha (Homo sapiens) (UniProt Q16665); test: cell_activity; conditions: 293 cells, larger amounts of plasmid
EPAS1 (Homo sapiens) = EPAS1 (Homo sapiens) (UniProt Q99814); test: cell_activity; conditions: 293 cells, endogenous ARNT
[3] = system: EPAS1/ARNT heterodimer (cotransfected) (Homo sapiens (EPAS1) / Mus musculus? (ARNT)); test: cell_activity; conditions: ARNT-deficient c4 cells; EPAS1 alone 1.8-fold; Hepa1c1c7 with EPAS1 9-fold

Sequence of HIF-1alpha (Homo sapiens) (Q16665 whole entry): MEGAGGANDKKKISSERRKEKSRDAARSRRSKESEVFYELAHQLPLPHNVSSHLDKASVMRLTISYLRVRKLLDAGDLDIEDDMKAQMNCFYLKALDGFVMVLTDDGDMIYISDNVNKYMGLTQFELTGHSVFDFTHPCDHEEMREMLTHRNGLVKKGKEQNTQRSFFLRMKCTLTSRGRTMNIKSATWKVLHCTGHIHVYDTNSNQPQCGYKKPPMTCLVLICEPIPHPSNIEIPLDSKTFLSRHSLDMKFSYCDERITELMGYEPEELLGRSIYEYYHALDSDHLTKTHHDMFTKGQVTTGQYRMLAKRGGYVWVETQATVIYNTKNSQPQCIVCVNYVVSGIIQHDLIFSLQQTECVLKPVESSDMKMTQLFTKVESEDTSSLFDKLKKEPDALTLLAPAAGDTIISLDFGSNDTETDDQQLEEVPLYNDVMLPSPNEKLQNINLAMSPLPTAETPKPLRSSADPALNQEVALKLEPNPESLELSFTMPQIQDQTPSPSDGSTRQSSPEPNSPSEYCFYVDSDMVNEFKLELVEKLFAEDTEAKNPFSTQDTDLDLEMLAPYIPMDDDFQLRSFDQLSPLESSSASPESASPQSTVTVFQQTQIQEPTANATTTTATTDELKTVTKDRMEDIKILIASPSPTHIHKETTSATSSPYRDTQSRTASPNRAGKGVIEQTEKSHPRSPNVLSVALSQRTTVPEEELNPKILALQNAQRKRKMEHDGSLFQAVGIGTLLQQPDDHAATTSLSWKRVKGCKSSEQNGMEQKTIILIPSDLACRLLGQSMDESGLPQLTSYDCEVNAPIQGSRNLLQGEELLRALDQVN
Sequence of EPAS1 (Homo sapiens) (Q99814 whole entry A60E): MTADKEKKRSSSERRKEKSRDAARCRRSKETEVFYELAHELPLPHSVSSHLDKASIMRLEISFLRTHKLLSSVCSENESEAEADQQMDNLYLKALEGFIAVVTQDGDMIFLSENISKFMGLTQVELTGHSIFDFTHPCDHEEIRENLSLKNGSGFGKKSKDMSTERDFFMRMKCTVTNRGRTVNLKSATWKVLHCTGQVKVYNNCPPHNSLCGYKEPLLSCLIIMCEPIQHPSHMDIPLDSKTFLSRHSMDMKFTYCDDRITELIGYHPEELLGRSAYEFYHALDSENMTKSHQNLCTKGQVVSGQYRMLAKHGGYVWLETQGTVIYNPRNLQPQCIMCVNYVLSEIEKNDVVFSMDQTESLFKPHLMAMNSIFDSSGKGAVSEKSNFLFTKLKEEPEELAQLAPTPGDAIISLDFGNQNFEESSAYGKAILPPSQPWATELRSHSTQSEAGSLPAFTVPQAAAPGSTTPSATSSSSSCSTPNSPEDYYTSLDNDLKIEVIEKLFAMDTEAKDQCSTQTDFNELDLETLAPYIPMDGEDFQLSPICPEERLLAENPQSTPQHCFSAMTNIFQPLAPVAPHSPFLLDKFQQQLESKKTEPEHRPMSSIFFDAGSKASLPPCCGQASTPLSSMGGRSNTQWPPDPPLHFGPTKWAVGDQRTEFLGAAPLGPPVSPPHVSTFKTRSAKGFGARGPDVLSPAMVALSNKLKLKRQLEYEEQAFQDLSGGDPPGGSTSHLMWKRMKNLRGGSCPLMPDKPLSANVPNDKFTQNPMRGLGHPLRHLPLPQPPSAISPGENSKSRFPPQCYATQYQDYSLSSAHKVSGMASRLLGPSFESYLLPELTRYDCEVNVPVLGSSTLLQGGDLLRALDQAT

Row | luciferase activity of the pRE-Elb-LUC reporter in ARNT-deficient c4 hepatoma cells [1] [fold] | Substance | activity (fold induction) [2] | activity (fold induction) (EPAS1 (Homo sapiens)) | activity (fold induction) [3]
1 | 12 | human EPAS1 protein |  |  | 
2 |  | three copies of 50-nt EPO hypoxia-inducible enhancer in luciferase reporter | 7 | 12 | 12

Reference: US5695963
